The chains are these.
B1: hPGT121.66 AAS + W/huSP34.40.13 scFv AAS + SAV + R (bispecific antibody, human IgG1, lambda, L234A L235A)
chain: EVQLVESGGGLVQPGGSLRLSCAASGFTFNTYAMNWVRQAPGKGLEWVGRIRSKYNNYAAYYADSVKSRFTISRDDSKNSLYLQMNSLRTEDTAVYYCVRHGNFGHSYVSWFAYWGQGTLVTVSSGGGGSGGGGSGGGGSGGGGSQAVVTQEPSLTVSPGGTVTLTCGSSTGAVTTGHYANWVQQKPGQAPRGLIGGTSNRAPGVPARFSGSLLGGKAALTISGAQPEDEAEYYCALWYSNRWVFGGGTKLTVLEPKSSDKTHTCPPCPAPEAAGGPSVFLFPPKPKDTLMISRTPEVTCVVVDVSHEDPEVKFNWYVDGVEVHNAKTKPREEQYNSTYRVVSVLTVLHQDWLNGKEYKCKVSNKALPASIEKTISKAKGQPREPQVYTLPPSREEMTKNQVSLSCAVKGFYPSDIAVEWESNGQPENNYKTTPPVLDSDGSFFLVSKLTVDKSRWQQGNVFSCSVMHEALHNRYTQKSLSLSPGK
heavy: QMQLQESGPGLVKPSETLSLTCSVSGASISDSYWSWIRRSPGKGLEWIGYVHKSGDTNYNPSLKSRVHLSLDTSKNQVSLSLTGVTAADSGKYYCARTLHGRRIYGIVAFNEWFTYFYMDVWGTGTQVTVSSASTKGPSVFPLAPSSKSTSGGTAALGCLVKDYFPEPVTVSWNSGALTSGVHTFPAVLQSSGLYSLSSVVTVPSSSLGTQTYICNVNHKPSNTKVDKKVEPKSCDKTHTCPPCPAPEAAGGPSVFLFPPKPKDTLMISRTPEVTCVVVDVSHEDPEVKFNWYVDGVEVHNAKTKPREEQYNSTYRVVSVLTVLHQDWLNGKEYKCKVSNKALPASIEKTISKAKGQPREPQVYTLPPSREEMTKNQVSLWCLVKGFYPSDIAVEWESNGQPENNYKTTPPVLDSDGSFFLYSKLTVDKSRWQQGNVFSCSVMHEALHNHYTQKSLSLSPGK
light: not shown
notes: also called 276; bispecific 276
B2: hPGT121.66 AAS W/huSP34.39.13 scFv AAS + SAV + R (bispecific antibody, human IgG1, lambda, L234A L235A)
chain: EVQLVESGGGLVQPGGSLRLSCAASGFTFNTYAMNWVRQAPGKGLEWVGRIRSKYNNYATYYADSVKSRFTISRDDSKNSLYLEMNSLRTEDTAVYYCVRHGNFGHSYVSWFAYWGQGTLVTVSSGGGGSGGGGSGGGGSGGGGSQAVVTQEPSLTVSPGGTVTLTCGSSTGAVTTGHYANWVQQKPGQAPRGLIGGTSNRAPGVPARFSGSLLGGKAALTISGAQPEDEAEYYCALWYSNRWVFGGGTKLTVLEPKSSDKTHTCPPCPAPEAAGGPSVFLFPPKPKDTLMISRTPEVTCVVVDVSHEDPEVKFNWYVDGVEVHNAKTKPREEQYNSTYRVVSVLTVLHQDWLNGKEYKCKVSNKALPASIEKTISKAKGQPREPQVYTLPPSREEMTKNQVSLSCAVKGFYPSDIAVEWESNGQPENNYKTTPPVLDSDGSFFLVSKLTVDKSRWQQGNVFSCSVMHEALHNRYTQKSLSLSPGK
heavy: QMQLQESGPGLVKPSETLSLTCSVSGASISDSYWSWIRRSPGKGLEWIGYVHKSGDTNYNPSLKSRVHLSLDTSKNQVSLSLTGVTAADSGKYYCARTLHGRRIYGIVAFNEWFTYFYMDVWGTGTQVTVSSASTKGPSVFPLAPSSKSTSGGTAALGCLVKDYFPEPVTVSWNSGALTSGVHTFPAVLQSSGLYSLSSVVTVPSSSLGTQTYICNVNHKPSNTKVDKKVEPKSCDKTHTCPPCPAPEAAGGPSVFLFPPKPKDTLMISRTPEVTCVVVDVSHEDPEVKFNWYVDGVEVHNAKTKPREEQYNSTYRVVSVLTVLHQDWLNGKEYKCKVSNKALPASIEKTISKAKGQPREPQVYTLPPSREEMTKNQVSLWCLVKGFYPSDIAVEWESNGQPENNYKTTPPVLDSDGSFFLYSKLTVDKSRWQQGNVFSCSVMHEALHNHYTQKSLSLSPGK
light: not shown
B3: hPGT121.66 AAS + W/huSP34.41.13 scFv AAS + SAV + R (bispecific antibody, human IgG1, lambda, L234A L235A)
chain: EVQLVESGGGLVQPGGSLSLSCAASGFTFNTYAMNWVRQAPGKGLEWVGRIRSKYNNYATYYADSVKSRFTISRDDSKNSLYLQMNSLRTEDTAVYYCVRHGNFGHSYVSWFAYWGQGTLVTVSSGGGGSGGGGSGGGGSGGGGSQAVVTQEPSLTVSPGGTVTLTCGSSTGAVTTGHYANWVQQKPGQAPRGLIGGTSNRAPGVPARFSGSLLGGKAALTISGAQPEDEAEYYCALWYSNRWVFGGGTKLTVLEPKSSDKTHTCPPCPAPEAAGGPSVFLFPPKPKDTLMISRTPEVTCVVVDVSHEDPEVKFNWYVDGVEVHNAKTKPREEQYNSTYRVVSVLTVLHQDWLNGKEYKCKVSNKALPASIEKTISKAKGQPREPQVYTLPPSREEMTKNQVSLSCAVKGFYPSDIAVEWESNGQPENNYKTTPPVLDSDGSFFLVSKLTVDKSRWQQGNVFSCSVMHEALHNRYTQKSLSLSPGK
heavy: QMQLQESGPGLVKPSETLSLTCSVSGASISDSYWSWIRRSPGKGLEWIGYVHKSGDTNYNPSLKSRVHLSLDTSKNQVSLSLTGVTAADSGKYYCARTLHGRRIYGIVAFNEWFTYFYMDVWGTGTQVTVSSASTKGPSVFPLAPSSKSTSGGTAALGCLVKDYFPEPVTVSWNSGALTSGVHTFPAVLQSSGLYSLSSVVTVPSSSLGTQTYICNVNHKPSNTKVDKKVEPKSCDKTHTCPPCPAPEAAGGPSVFLFPPKPKDTLMISRTPEVTCVVVDVSHEDPEVKFNWYVDGVEVHNAKTKPREEQYNSTYRVVSVLTVLHQDWLNGKEYKCKVSNKALPASIEKTISKAKGQPREPQVYTLPPSREEMTKNQVSLWCLVKGFYPSDIAVEWESNGQPENNYKTTPPVLDSDGSFFLYSKLTVDKSRWQQGNVFSCSVMHEALHNHYTQKSLSLSPGK
light: not shown
B4: huSP34.10.1 Fab-HF (Fab, V domains shown)
VH: EVQLVESGGGLVQPGGSLRLSCAASGFTFSDYAMNWVRQAPGKGLEWVGRTRSKYNSYATYYAASVKGRFTISRDDSKNSLYLQMNSLKTEDTAVYYCVRHGNFGHSYVSWFAVWGQGTLVTVSS
VL: QAVVTQEPSLTVSPGGTVTLTCRSSTGAVTTSNYANWVQQKPGQAPRGLIGGTNKRAPWTPARFSGSLIGDKAALTLSGAQPEDEAEYYCALWYSNLWVFGGGTKLTVL
B5: huSP34.10.6 Fab-HF (Fab, V domains shown)
VH: EVQLVESGGGLVQPGGSLRLSCAASGFTFSDYAMNWVRQAPGKGLEWVGRTRSKYNSYATYYAASVKGRFTISRDDSKNSLYLQMNSLKTEDTAVYYCVRHGNFGHSYVSWFAVWGQGTLVTVSS
VL: QAVVTQPPSLTVSPGGTVTLTCGSSTGAVTTGHYANWVQQKPGQAPRGLIGGTSNRAPGVPARFSGSLSGGKAALTISGAQPEDEAEYYCALWYSARWVFGGGTKLTVL
B6: huSP34.6.6 Fab-HF (Fab, V domains shown)
VH: EVQLVESGGGLVQPGGSLRLSCAASGFTFSTYAMNWVRQAPGKGLEWVGRIRSKYNNYATYYADSVKGRFTISRDNSKNTLYLQMNSLRAEDTAMYYCVRHGNFGNSYVSWFAVWGQGTLVTVSS
VL: QAVVTQPPSLTVSPGGTVTLTCGSSTGAVTTGHYANWVQQKPGQAPRGLIGGTSNRAPGVPARFSGSLSGGKAALTISGAQPEDEAEYYCALWYSARWVFGGGTKLTVL
B7: huSP34.7.6 Fab-HF (Fab, V domains shown)
VH: EVQLVESGGGLVQPGGSLRLSCAASGFTFSDYAMNWVRQAPGKGLEWVGRTRSKYNNYATYYAASVKGRFTISRDDSKNSLYLQMNSLKTEDTAVYYCVRHGNFGNSYVSWFAVWGQGTLVTVSS
VL: QAVVTQPPSLTVSPGGTVTLTCGSSTGAVTTGHYANWVQQKPGQAPRGLIGGTSNRAPGVPARFSGSLSGGKAALTISGAQPEDEAEYYCALWYSARWVFGGGTKLTVL
B8: huSP34.9.6 Fab-HF (Fab, V domains shown)
VH: EVQLVESGGGLVQPGGSLRLSCAASGFTFSDYAMNWVRQAPGKGLEWVGRTRSKYNSYATYYAASVKGRFTISRDDSKNSLYLQMNSLKTEDTAVYYCVRHGNFGNSYVSWFAVWGQGTLVTVSS
VL: QAVVTQPPSLTVSPGGTVTLTCGSSTGAVTTGHYANWVQQKPGQAPRGLIGGTSNRAPGVPARFSGSLSGGKAALTISGAQPEDEAEYYCALWYSARWVFGGGTKLTVL
B9: huSP34.10.4 Fab-HF (Fab, V domains shown)
VH: EVQLVESGGGLVQPGGSLRLSCAASGFTFSDYAMNWVRQAPGKGLEWVGRTRSKYNSYATYYAASVKGRFTISRDDSKNSLYLQMNSLKTEDTAVYYCVRHGNFGHSYVSWFAVWGQGTLVTVSS
VL: QAVVTQEPSLTVSPGGTVTLTCGSSTGAVTTSHYANWVQQKPGQAPRGLIGGTSKRAPWTPARFSGSLLGGKAALTLSGAQPEDEAEYYCALWYSALWVFGGGTKLTVL
B10: huSP34.10.2 Fab-HF (Fab, V domains shown)
VH: EVQLVESGGGLVQPGGSLRLSCAASGFTFSDYAMNWVRQAPGKGLEWVGRTRSKYNSYATYYAASVKGRFTISRDDSKNSLYLQMNSLKTEDTAVYYCVRHGNFGHSYVSWFAVWGQGTLVTVSS
VL: QAVVTQEPSLTVSPGGTVTLTCGSSTGAVTTSNYANWVQQKPGQAPRGLIGGTSNRAPWTPARFSGSLLGGKAALTLSGAQPEDEAEYYCALWYSNLWVFGGGTKLTVL
B11: huSP34.10.5 Fab-HF (Fab, V domains shown)
VH: EVQLVESGGGLVQPGGSLRLSCAASGFTFSDYAMNWVRQAPGKGLEWVGRTRSKYNSYATYYAASVKGRFTISRDDSKNSLYLQMNSLKTEDTAVYYCVRHGNFGHSYVSWFAVWGQGTLVTVSS
VL: QAVVTQEPSLTVSPGGTVTLTCGSSTGAVTTGHYANWVQQKPGQAPRGLIGGTSNRAPWTPARFSGSLLGGKAALTLSGAQPEDEAEYYCALWYSARWVFGGGTKLTVL

Eleven molecules from patent publication US20230056252A1 (Gilead, published 2023) can be followed below.

In the first assay the target is T1, biotinylated Human CD3E and CD3D (Acro Biosystems Cat CDD-H82W1) (human, UniProt P07766 23-126; P04234 22-105).
T1 construct: also called biotinylated CD3
The assay can be described thus: SPR (Biacore 4000), CD3 captured on streptavidin chip.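 Also: bispecific antibodies or Fabs injected at several concentrations over CD3 surfaces of varying density, sensorgrams fitted with a simple kinetic model to obtain association, dissociation and equilibrium constants.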 For orientation: Surface plasmon resonance follows binding to a sensor surface in real time, without labels.
As to B1, the dissociation constant Kd (in general, the free concentration of one partner at which half of the binding sites on the other are occupied at equilibrium, for simple one-to-one binding) came out at 1.8 nM; the koff (as a rule, the rate constant with which the complex falls apart) was determined as 0.0063 s⁻¹; the kon (as a rule, a measure of how fast the partners come together) was 3.6e+06 M⁻¹ s⁻¹.
Taken in the same sequence, the figures for B2 were 2.6 nM, 0.009 s⁻¹ and 3.4e+06 M⁻¹ s⁻¹.
For the molecule B3, the dissociation constant Kd came out at 2.8 nM, the koff stood at 0.0085 s⁻¹ and the kon turned out to be 3e+06 M⁻¹ s⁻¹.

A further assay deals with T2, CD3 expressed on cell-surface of primary human T cells (human, UniProt P07766 23-207; P04234 22-171).
T2 construct: also called cell-surface CD3; human CD3
The assay can be described thus: flow cytometry competition vs murine SP34-AF488 on human T cells, n = 1.
Take B4: the IC50 (commonly the point on the concentration scale where inhibition reaches its midpoint) was over 20 µg/mL.
As to B5, the half-inhibitory concentration (IC50) is over 20 µg/mL.
The molecule B6 returned a 50% inhibitory concentration (IC50) of over 20 µg/mL.
The same measure, in the same setting: under B7 stands over 20 µg/mL; under B8, over 20 µg/mL.
Regarding B9, the half-inhibitory concentration (IC50) is over 20 µg/mL.
Same read-out and setting: under B10 stands over 20 µg/mL; under B11, over 20 µg/mL.
